Data: patent US20140005125A1 (Molecular Partners, published 2014)
Where a chain is given by its changes, count along the chain named.

Experiments:
[1] = target: T1, Recombinant human PDGF-BB (human, UniProt P01127 82-190); test: SPR (ProteOn), biotinylated PDGF-BB on neutravidin chip, DARPin injected; Kd from on- and off-rates
T1 construct: For SPR it was chemically biotinylated on primary amines and captured on neutravidin; also called PDGF-BB (human); Reliatech 200-055
Experimental: (§1) Biotinylated PDGF-BB molecules from human and mouse were immobilized in a flow cell through binding to coated […] and the interaction with various selected DARPins was analyzed.
(§2) SPR was measured using a ProteOn instrument (BioRad) and measurement was performed according standard procedures known to the person skilled in the art. The running buffer was PBS, pH 7.4, containing 0.005% Tween 20®. Neutravidin was covalently immobilized on a GLC chip (BioRad) to a level of about 8000 resonance units (RU). Immobilization of PDGF-BB on the neutravidin coated chip was then performed. The interaction of DARPin PDGF-BB was then measured by injecting 100 μl running buffer (PBS containing 0.005% Tween®) containing serial dilutions of DARPins of concentration of […] (on-rate measurement), followed by a running buffer flow for between 10 minutes and up to 3 hours at a constant flow rate of 30 μl/min (off-rate measurement). The signals (i.e. resonance unit (RU) values) of an uncoated reference cell and a reference injection (i.e. injection of running buffer only) were subtracted from the RU traces obtained after injection of […] (double-referencing). From the SRP traces obtained from the on-rate and off-rate measurements the on- and off-rate of the corresponding DARPin PDGF-BB interaction can be determined.
(§3) Dissociation constants (Kd) were calculated from the estimated on- and off-rates using standard procedures known to the person skilled in the art.

[2] = target: T2, Recombinant murine PDGF-BB (mouse, UniProt P31240 82-190, limits assumed); test: as above
T2 construct: For SPR chemically biotinylated on primary amines and captured on neutravidin; also called mouse PDGF-BB; PDGF-BB (mouse)
T2 sequence (P31240 82-190 limits assumed): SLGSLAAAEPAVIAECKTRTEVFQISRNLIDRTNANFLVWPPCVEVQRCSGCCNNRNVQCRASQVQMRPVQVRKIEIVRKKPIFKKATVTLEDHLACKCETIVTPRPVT
Experimental: as §1, §2, §3

[3] = target: T1, Recombinant human PDGF-BB; test: receptor competition ELISA: DARPin preincubated with PDGF-BB, free PDGF-BB captured on coated PDGFRbeta/Fc; mean IC50
Experimental: (§4) The potency of PEGylated anti-PDGF-BB DARPins to inhibit the binding of human PDGF-BB to its receptor PDGFRbeta was determined in a in a receptor competition ELISA (based on PDGF-BB Quantikine, R&D Systems). PDGFRbeta/Fc chimera has been precoated on a microplate. The DARPins were preincubated in assay diluent from the PDGF-BB Quantikine kit (R&D Systems) with a defined amount of PDGF-BB and incubated at room temperature for 2 hours with shaking at 750 rpm. These preincubation mixtures were then transferred into the precoated wells and any PDGF-BB that is not blocked by the DARPins was bound by the immobilized receptor. After washing away any unbound substances, a horse radish peroxidase-linked polyclonal antibody specific for PDGF-BB was added to the wells. Following a wash to remove any unbound antibody-enzyme reagent, a substrate solution was added to the wells and color was developing in proportion to the amount of PDGF-BB bound. The color development was stopped and the intensity of the color was measured at […]. Example titration curves are given for a set of DARPins in FIG. 2. IC₅₀ values were calculated from such titration curves obtained as described above using Graph Pad Prism software and standard procedures known to the person skilled in the art.

[4] = target: T1, Recombinant human PDGF-BB; test: cell-based or functional assay
[5] = target: T1, Recombinant human PDGF-BB; test: receptor competition ELISA (PDGFRbeta), distinct single experiment of FIG. 2
Experimental: The inhibition of the binding of PDGF-BB to PDGFRbeta by various concentrations of DARPins with specificity for PDGF-BB and the corresponding fitted inhibition curves are shown for a distinct single experiment. The IC₅₀ values were then calculated to be about 20 and 18 pM for the DARPins #50 (D1) and #28 (D2), respectively. OD, optical density at 450 nm; C, concentration of DARPins in pM. The X axis is shown in logarithmic scale. See below for the definitions of DARPin #50 and 28.
as §4, with “After washing away any unbound substances, a horse radish peroxidase-linked polyclonal antibody specific for PDGF-BB was added to the wells. Following a wash to remove any unbound antibody-enzyme reagent, a substrate solution was added to the wells and color was developing in proportion to the amount of PDGF-BB bound.” left out, “Example titration curves are given for a set of DARPins in FIG. 2.” left out

T1 sequence (P01127 82-190 limits assumed): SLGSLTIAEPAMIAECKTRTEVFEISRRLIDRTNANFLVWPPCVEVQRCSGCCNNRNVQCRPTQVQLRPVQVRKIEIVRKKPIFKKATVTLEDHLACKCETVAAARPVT

B1: DARPin #44 (designed binder)
chain: MRGSHHHHHHGSDLGAKLLHAAVVGQDDEVRILLAAGADVNAKDKSGHTPLHLAAYSGHLEIVEVLLKAGADVNAKDQEGTTPLHFAASVGHLEIVEVLLKAGADVNAQDHYGATPADLAALIGHEDIAEVLQKLN
- Kd [1]: 0.0768 nM
- Kd [2]: 0.0902 nM
- IC50 [3]: 0.13 nM

B2: DARPin #35 (designed binder)
chain: MRGSHHHHHHGSDLGQKLLYAAEHGQDDEVRILLAAGADVNAKDQTGSTPLHYAAVWGHMEIVEVLLKAGADVNAQDLWGATPADLAAFLGHEDIAVVLQKLN
- Kd [1]: 0.0956 nM
- Kd [2]: 0.0981 nM

B3: DARPin #43 (designed binder)
chain: MRGSHHHHHHGSDLGLKLLEAAQRGQDDEVRILLAAGADVNAKDREGWTPLHVAAYEGHLEIVEVLLKAGADVNAKDYTGLTPLHVAAVWGHLEIVEVLLKAGADVNAQDIYGATPADLAAYIGHEDIAEVLQKLN
- Kd [1]: 1290 nM
- Kd [2]: 1510 nM

B4: DARPin #24 (designed binder)
chain: MRGSHHHHHHGSDLGKKLLEAARAGQDDEVRELLKAGADVNAKDEEGTTPLHYAAVWGHLEIVEVLLKAGADVNAQDIYGATPADLAALVGHEDIAEVLQKLN
- IC50 of inhibition of NIH-3T3 cell proliferation (WST-1) [4]: 1.4 nM
- Kd [1]: 0.0301 nM
- IC50 [3]: 0.015 nM

B5: DARPin #38 (designed binder)
chain: B2 chain with Q16D, Y20W, E23K, Q45D, T46E, M60L, I62T, L78I, F89L, V97E
- Kd [1]: 0.0941 nM
- Kd [2]: 0.0583 nM
- IC50 [3]: 0.085 nM

B6: DARPin #33 (designed binder)
chain: MRGSHHHHHHGSDLGHKLLQAAEQGQDDEVRILLAAGADVNAKDEYGTTPLHFAAVWGHLEIVEVLLKAGADVNAQDVFGATPADLAAYVGHEDIAEVLQKLN
- Kd [1]: 0.0806 nM
- Kd [2]: 0.0904 nM

B7: DARPin #36 (designed binder)
chain: B4 chain with K16S, E20T, R23L, A24D, E32I, K35A, W57V, Y79W
- Kd [1]: 0.0242 nM
- Kd [2]: 0.053 nM

B8: DARPin #40 (designed binder)
chain: B4 chain with K16Y, E20S, R23Q, A24Y, E32I, K35A, E45Y, E46S, V56T, V90I
- Kd [1]: 0.0344 nM
- Kd [2]: 0.0608 nM

B9: DARPin #26 (designed binder)
chain: B4 chain with E32I, K35A, V98I
- Kd [1]: 0.0177 nM
- Kd [2]: 0.0174 nM

B10: DARPin #28 (designed binder)
chain: B4 chain with E32I, L34M, K35A, A36N
- IC50 of inhibition of NIH-3T3 cell proliferation (WST-1) [4]: 1.6 nM
- IC50 [5]: ~0.018 nM
- Kd [1]: 0.0171 nM
- IC50 [3]: 0.016 nM

B11: DARPin #30 (designed binder)
chain: B4 chain with W57Y
- IC50 of inhibition of NIH-3T3 cell proliferation (WST-1) [4]: 3.2 nM
- Kd [1]: 0.11 nM
- IC50 [3]: 0.49 nM

B12: DARPin #37 (designed binder)
chain: MRGSHHHHHHGSDLGWKLLEAARTGQDDEVRILLAAGADVNAKDITGTTPLHYAAAWGHMEIVEVLLKTGADVNAQDLYGATPADLAALLGHEDIAEVLQKLN
- Kd [1]: 0.152 nM
- Kd [2]: 0.0828 nM
- IC50 [3]: > 0.4 nM

B13: DARPin #42 (designed binder)
chain: MRGSHHHHHHGSDLGYKLLFAAYVGQDDEVRILLAAGADVNAKDRHGRTPLHLAAWEGHLEIVEVLLKAGADVNAKDDEGTTPLHLLAAWEGHLEIVEVLLKAGADVNAQDVYGATPADLAAYIGHEDIAEVLQKLN
- Kd [1]: 0.0805 nM
- Kd [2]: 0.0974 nM

B14: DARPin #34 (designed binder)
chain: MRGSHHHHHHGSDLGDKLLQSDLGRKLLHAARSGQDDEVRILLAAGADVNAKDEDGTTPLHYAAAWGHLEIVEVLLKAGADVNAQDIYGATPADLAAYIGHEDIAEVLQKLN
- Kd [1]: 0.0775 nM
- Kd [2]: 0.0592 nM
- IC50 [3]: 0.21 nM

B15: DARPin #49 (designed binder)
chain: MRGSHHHHHHGSDLGKKLLEAARAGQDDEVRILMANGADVNAQDLNGQTPLHLAADIGHLEIVEVLLKHGADVNAQDYAGSTPLRLAAWAGHLEIVEVLLKNGADVNANDYFGYTPLHLAAYFGHLEIVDVLLKHGADVNAQDKFGKTAFDISIDNGNEDLAEILQKLN
- IC50 of inhibition of NIH-3T3 cell proliferation (WST-1) [4]: 1.9 nM
- Kd [1]: 0.0769 nM
- Kd [2]: 0.102 nM
- IC50 [3]: 0.066 nM

B16: DARPin #59 (designed binder)
chain: B15 chain with D27G, R31H, D130E
- IC50 of inhibition of NIH-3T3 cell proliferation (WST-1) [4]: 2 nM
- Kd [1]: 0.171 nM

B17: DARPin #50 (designed binder)
chain: MRGSHHHHHHGSDLGKKLLEAARAGQDDEVRELLKAGADVNAKDLNGQTPLHLAADIGHLEIVEVLLKAGADVNAKDYAGSTPLRLAAWAGHLEIVEVLLKAGADVNAKDYFGYTPLHLAAYFGHLEIVEVLLKAGADVNAQDKFGKTAFDISIDNGNEDLAEILQKLN
- IC50 [5]: ~0.02 nM
- Kd [1]: 0.115 nM
- IC50 [3]: 0.032 nM
